Data reported in paper PMC5887453 (Nucleic Acids Research, 2018).

Tests used:
Assay in all cases: native gel or EMSA
PhoEF-2 M219S = molecular target: T1, PhoEF-2 M219S (Pyrococcus horikoshii, UniProt O59521 1-732, M219S)
T1 sequence (looked up): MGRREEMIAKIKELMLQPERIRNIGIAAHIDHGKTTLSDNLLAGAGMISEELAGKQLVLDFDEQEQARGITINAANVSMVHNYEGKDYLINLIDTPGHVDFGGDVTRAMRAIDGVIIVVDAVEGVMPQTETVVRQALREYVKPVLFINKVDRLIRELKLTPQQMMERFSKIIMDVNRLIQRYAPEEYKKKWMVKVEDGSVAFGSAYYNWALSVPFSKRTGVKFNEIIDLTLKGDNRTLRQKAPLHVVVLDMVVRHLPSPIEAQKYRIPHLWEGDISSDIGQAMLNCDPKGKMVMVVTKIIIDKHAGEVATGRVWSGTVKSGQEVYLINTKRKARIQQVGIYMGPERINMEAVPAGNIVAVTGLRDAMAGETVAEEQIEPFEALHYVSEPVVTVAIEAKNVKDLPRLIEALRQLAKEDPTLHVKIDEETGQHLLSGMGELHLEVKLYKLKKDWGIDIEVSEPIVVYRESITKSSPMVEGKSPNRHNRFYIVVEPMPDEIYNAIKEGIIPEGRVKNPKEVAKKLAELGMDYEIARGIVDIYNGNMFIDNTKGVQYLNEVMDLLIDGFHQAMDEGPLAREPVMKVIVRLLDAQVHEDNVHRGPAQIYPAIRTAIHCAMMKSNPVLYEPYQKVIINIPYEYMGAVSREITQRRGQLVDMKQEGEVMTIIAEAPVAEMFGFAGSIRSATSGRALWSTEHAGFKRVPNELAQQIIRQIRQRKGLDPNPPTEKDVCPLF

[1] = molecular target: T2, Pyrococcus horikoshii elongation factor 2 (PhoEF-2), wild type (Pyrococcus horikoshii, UniProt O59521 1-732)
T2 sequence (looked up): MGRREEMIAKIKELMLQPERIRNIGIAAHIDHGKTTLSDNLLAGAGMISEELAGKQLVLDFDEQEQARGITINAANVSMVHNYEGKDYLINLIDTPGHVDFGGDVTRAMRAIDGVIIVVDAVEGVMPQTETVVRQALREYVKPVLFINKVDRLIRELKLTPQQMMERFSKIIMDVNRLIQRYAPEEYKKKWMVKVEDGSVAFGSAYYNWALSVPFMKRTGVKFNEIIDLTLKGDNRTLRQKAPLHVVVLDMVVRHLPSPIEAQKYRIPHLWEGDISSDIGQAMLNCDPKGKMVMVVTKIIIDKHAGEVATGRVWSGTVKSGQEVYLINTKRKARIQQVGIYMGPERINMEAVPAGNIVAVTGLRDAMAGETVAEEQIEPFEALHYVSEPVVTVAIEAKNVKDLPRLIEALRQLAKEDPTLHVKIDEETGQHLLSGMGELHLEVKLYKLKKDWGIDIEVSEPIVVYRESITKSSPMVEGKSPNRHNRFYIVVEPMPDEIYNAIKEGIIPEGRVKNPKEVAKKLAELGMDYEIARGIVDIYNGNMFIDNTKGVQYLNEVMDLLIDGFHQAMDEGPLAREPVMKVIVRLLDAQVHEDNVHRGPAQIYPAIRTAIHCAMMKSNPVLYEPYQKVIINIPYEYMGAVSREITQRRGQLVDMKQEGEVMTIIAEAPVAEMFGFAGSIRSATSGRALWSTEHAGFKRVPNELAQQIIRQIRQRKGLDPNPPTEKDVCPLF

PhoEF-2 P164S = molecular target: T3, PhoEF-2 P164S (Pyrococcus horikoshii, UniProt O59521 1-732, P164S)
T3 sequence (looked up): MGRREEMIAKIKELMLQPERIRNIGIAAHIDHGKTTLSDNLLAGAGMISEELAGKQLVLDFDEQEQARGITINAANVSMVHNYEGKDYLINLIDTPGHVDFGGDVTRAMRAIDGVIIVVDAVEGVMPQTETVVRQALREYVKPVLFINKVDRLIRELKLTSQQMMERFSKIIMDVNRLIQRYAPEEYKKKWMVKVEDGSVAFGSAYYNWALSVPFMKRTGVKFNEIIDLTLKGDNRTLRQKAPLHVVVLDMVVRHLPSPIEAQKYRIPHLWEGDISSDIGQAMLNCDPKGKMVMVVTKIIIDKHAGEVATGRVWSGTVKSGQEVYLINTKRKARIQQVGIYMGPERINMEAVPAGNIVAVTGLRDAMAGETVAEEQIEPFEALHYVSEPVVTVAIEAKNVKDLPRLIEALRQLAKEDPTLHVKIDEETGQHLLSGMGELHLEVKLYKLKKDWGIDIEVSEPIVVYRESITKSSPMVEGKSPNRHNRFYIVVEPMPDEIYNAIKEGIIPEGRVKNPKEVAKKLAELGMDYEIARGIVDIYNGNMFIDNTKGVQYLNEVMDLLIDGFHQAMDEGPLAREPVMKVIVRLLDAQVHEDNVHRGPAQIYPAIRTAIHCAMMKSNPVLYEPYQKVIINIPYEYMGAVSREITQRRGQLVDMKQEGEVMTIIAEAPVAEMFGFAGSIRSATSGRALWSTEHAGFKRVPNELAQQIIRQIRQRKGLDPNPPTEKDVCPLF

Measured: binding result

B1: Pyrococcus horikoshii ribosomal stalk protein P1 (natural protein, UniProt O57705 1-108, looked up)
chain: MEYVYAALLLHSVGKEINEENLKAVLQAAGVEPEEARIKALVAALEGVNIDEVIEKAAMPVAVAAAPAAAPAEAGGEEKKEEEKKEEEEKEEEVSEEEALAGLSALFG
modifications: in the SPR only: biotin on amino groups via a PEG linker (EZ-Link NHS-PEG4-Biotin)
binds: all assays above
